# Reference: IntAct's records for PubMed 25910212
# B1: EF-hand domain-containing protein 1 (Homo sapiens), Q5JVL4 (parent)
# chain: MVSNPVHGLPFLPGTSFKDSTKTAFHRSQTLSYRNGYAIVRRPTVGIGGDRLQFNQLSQAELDELASKAPVLTYGQPKQAPPADFIPAHVAFDKKVLKFDAYFQEDVPMSTEEQYRIRQVNIYYYLEDDSMSVIEPVVENSGILQGKLIKRQRLAKNDRGDHYHWKDLNRGINITIYGKTFRVVDCDQFTQVFLESQGIELNPPEKMALDPYTELRKQPLRKYVTPSDFDQLKQFLTFDKQVLRFYAIWDDTDSMYGECRTYIIHYYLMDDTVEIREVHERNDGRDPFPLLMNRQRVPKVLVENAKNFPQCVLEISDQEVLEWYTAKDFIVGKSLTILGRTFFIYDCDPFTRRYYKEKFGITDLPRIDVSKREPPPVKQELPPYNGFGLVEDSAQNCFALIPKAPKKDVIKMLVNDNKVLRYLAVLESPIPEDKDRRFVFSYFLATDMISIFEPPVRNSGIIGGKYLGRTKVVKPYSTVDNPVYYGPSDFFIGAVIEVFGHRFIILDTDEYVLKYMESNAAQYSPEALASIQNHVRKREAPAPEAESKQTEKDPGVQELEALIDTIQKQLKDHSCKDNIREAFQIYDKEASGYVDRDMFFKICESLNVPVDDSLVKELIRMCSHGEGKINYYNFVRAFSN
# Variants of: B1
# Details: with ikzf3_human IKZF3, Q9UKT9
# ikzf3_human IKZF3, Q9UKT9, sequence (Q9UKT9 whole entry): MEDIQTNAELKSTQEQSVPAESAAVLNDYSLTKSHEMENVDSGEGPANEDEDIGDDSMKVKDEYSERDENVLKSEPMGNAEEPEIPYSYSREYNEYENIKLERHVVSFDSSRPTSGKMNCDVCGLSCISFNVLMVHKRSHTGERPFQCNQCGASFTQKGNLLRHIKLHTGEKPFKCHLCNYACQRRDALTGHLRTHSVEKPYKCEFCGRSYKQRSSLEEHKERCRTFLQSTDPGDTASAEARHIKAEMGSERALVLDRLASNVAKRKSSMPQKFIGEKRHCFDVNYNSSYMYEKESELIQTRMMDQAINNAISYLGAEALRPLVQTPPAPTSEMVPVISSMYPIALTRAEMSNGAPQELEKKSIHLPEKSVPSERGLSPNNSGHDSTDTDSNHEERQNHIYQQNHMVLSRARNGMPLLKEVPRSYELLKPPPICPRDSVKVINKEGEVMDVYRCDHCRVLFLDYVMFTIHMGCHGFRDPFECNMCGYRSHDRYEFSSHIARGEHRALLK
row,effect of a mutation on the interaction,Variant
1,with no effect,R159W
2,disrupting interaction strength,R221H

# Variants of: B1
# Details: with kctd4_human KCTD4, Q8WVF5
# kctd4_human KCTD4, Q8WVF5, sequence (Q8WVF5 whole entry): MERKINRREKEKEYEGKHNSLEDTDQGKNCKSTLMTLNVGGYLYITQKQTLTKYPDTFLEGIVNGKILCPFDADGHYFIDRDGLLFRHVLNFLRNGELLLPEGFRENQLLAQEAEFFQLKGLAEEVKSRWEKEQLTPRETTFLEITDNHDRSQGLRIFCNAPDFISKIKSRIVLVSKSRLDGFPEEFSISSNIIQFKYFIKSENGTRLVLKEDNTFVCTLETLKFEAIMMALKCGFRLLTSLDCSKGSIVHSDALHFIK
row,effect of a mutation on the interaction,Variant
1,with no effect,R159W
2,disrupting interaction strength,R221H

# Variants of: B1
# Details: with rim3a_human RIMBP3, Q9UFD9
# rim3a_human RIMBP3, Q9UFD9, sequence (Q9UFD9 whole entry): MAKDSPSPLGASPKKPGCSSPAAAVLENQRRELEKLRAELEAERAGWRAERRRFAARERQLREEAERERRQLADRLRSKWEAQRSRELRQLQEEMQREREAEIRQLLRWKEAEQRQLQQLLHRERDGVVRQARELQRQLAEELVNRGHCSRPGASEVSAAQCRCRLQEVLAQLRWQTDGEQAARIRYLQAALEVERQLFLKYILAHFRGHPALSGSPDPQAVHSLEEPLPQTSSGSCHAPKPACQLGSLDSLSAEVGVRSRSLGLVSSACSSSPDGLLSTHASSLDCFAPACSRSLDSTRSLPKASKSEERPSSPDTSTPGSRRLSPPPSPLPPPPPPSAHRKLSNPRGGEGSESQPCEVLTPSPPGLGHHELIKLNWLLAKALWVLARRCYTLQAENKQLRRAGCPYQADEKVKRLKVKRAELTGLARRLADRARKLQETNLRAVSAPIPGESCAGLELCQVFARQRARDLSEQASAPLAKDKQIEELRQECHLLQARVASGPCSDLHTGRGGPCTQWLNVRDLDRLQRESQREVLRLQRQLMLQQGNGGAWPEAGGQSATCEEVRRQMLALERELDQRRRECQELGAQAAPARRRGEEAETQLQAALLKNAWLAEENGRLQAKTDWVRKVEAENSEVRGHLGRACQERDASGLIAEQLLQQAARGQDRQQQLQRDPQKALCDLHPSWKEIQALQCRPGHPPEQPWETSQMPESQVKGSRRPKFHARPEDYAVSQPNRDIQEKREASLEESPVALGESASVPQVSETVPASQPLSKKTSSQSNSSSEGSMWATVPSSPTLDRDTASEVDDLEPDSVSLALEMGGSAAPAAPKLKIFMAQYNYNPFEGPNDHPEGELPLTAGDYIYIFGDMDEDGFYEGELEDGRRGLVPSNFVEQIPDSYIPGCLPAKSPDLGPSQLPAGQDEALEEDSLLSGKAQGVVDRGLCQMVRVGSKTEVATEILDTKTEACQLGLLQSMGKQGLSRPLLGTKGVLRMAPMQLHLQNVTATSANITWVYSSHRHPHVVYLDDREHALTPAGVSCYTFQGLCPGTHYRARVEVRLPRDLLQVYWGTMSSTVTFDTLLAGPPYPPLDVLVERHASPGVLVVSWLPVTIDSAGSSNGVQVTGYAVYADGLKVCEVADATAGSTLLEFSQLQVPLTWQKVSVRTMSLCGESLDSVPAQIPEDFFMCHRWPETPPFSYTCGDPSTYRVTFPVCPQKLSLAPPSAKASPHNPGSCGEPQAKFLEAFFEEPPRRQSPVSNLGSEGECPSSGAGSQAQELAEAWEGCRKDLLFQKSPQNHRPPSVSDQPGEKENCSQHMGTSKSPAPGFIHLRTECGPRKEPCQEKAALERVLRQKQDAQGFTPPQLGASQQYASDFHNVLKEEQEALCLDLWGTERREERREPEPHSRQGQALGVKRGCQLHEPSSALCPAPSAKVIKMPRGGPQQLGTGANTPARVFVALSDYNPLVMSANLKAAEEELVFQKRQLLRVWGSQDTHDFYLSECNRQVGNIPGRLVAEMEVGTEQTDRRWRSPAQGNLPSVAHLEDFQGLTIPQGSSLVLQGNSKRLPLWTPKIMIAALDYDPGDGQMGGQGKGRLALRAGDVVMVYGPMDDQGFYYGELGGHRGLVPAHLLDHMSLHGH
row,effect of a mutation on the interaction,Variant
1,with no effect,R159W
2,disrupting interaction strength,R221H

# Variants of: B1
# Details: with trip6_human TRIP6, Q15654
# trip6_human TRIP6, Q15654, sequence (Q15654 whole entry): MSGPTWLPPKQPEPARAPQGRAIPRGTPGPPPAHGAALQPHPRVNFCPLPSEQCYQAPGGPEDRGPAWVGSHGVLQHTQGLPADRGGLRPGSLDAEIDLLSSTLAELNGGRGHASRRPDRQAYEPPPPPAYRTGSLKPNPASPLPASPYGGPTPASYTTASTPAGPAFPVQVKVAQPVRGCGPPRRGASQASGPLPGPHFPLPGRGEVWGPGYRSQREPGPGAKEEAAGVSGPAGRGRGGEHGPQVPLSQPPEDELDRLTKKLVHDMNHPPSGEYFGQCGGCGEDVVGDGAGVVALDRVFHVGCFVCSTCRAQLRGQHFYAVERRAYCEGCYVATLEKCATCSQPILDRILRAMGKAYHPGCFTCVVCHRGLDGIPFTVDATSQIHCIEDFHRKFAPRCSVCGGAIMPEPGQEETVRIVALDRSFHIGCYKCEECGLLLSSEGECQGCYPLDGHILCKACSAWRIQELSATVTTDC
row,effect of a mutation on the interaction,Variant
1,with no effect,R159W
2,disrupting interaction strength,R221H

# Variants of: B1
# Details: with KRT15, P19012
# KRT15, P19012, sequence (P19012 whole entry): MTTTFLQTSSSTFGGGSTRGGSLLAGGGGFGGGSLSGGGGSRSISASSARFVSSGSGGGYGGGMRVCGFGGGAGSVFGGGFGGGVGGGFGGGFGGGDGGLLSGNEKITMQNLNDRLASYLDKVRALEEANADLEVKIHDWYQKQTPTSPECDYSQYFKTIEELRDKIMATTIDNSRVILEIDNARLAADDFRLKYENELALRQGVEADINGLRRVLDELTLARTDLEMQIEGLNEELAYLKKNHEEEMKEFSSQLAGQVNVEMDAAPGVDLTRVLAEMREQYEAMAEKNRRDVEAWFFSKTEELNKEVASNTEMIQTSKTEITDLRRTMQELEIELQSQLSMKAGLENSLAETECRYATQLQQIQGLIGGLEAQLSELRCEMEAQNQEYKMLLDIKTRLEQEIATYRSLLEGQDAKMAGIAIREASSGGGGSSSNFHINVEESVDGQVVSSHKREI
row,effect of a mutation on the interaction,Variant
1,with no effect,R159W
2,disrupting interaction strength,R221H

# Variants of: B1
# Details: with TCF4, P15884-3
# TCF4, P15884-3, sequence (P15884 other isoform, or with tags, fused parts or gaps): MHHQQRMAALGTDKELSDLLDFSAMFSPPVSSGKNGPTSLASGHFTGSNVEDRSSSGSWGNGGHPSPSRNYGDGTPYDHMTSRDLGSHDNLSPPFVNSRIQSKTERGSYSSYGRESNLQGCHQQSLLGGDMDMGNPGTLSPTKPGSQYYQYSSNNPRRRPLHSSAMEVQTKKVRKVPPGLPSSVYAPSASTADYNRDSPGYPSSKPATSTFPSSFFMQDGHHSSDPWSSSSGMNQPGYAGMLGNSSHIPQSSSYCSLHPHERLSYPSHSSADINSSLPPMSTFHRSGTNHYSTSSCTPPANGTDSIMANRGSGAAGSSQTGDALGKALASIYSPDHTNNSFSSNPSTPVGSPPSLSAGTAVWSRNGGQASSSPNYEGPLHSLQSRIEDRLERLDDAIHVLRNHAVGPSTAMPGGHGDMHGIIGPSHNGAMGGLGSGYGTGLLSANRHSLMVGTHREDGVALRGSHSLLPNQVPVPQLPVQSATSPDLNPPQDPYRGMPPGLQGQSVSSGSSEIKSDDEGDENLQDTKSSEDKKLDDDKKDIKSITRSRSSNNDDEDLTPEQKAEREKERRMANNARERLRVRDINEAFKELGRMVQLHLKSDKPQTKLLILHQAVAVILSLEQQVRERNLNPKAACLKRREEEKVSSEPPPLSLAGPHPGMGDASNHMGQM
row,effect of a mutation on the interaction,Variant
1,with no effect,R159W
2,disrupting interaction strength,R221H

# Variants of: B1
# Details: with goga2_human GOLGA2, Q08379
# goga2_human GOLGA2, Q08379, sequence (Q08379 whole entry): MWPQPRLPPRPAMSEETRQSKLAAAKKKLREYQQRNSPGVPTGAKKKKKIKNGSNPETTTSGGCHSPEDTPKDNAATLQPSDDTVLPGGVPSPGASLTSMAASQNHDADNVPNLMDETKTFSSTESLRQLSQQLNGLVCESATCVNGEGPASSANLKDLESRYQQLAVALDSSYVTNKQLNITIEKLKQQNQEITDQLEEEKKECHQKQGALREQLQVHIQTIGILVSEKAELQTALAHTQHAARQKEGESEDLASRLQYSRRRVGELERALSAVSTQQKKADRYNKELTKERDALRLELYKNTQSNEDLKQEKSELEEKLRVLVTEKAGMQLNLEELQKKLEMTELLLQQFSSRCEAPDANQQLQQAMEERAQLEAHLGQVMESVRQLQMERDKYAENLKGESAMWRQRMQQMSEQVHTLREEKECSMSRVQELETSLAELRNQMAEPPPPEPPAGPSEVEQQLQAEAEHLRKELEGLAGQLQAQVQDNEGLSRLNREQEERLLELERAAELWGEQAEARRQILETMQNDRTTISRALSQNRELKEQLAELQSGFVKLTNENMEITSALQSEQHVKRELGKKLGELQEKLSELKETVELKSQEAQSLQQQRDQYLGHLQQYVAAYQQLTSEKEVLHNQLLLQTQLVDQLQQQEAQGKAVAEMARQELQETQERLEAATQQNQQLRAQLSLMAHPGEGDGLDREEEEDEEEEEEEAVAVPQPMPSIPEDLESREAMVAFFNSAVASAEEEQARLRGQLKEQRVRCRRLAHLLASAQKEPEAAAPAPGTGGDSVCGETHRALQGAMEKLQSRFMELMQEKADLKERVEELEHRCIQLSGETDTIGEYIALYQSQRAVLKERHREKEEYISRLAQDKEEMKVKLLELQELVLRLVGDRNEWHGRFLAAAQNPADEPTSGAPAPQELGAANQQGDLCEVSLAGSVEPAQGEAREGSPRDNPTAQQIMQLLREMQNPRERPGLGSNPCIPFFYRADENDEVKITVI
row,effect of a mutation on the interaction,Variant
1,with no effect,R159W
2,disrupting interaction strength,R221H
